Source: US10202627B2, “Method for producing trehangelin” (THE KITASATO INSTITUTE, priority 2016, dated 2019)

Assays:
[1] = system: animal cells (particularly, human cells); conditions: cited from earlier work
[2] = enoyl-CoA hydratase activity of recombinant OrfA, LC/MS; format: biochemical; conditions: 15.8 μg orfA with orfB and orfD, 500 μM NADPH, pH 7.5, 27° C., 16 hours
Description: (§1) A substrate of the target enzyme is added to the reaction solution. Specifically, in a 3-ketoacyl-CoA synthase activity assay, acetyl-CoA and methylmalonyl-CoA are added. In a 3-ketoacyl-CoA reductase activity assay, 2-methylacetoacetyl-CoA is added. In an enoyl-CoA hydratase activity assay, 3-hydroxy-2-methylbutyryl-CoA is added. In an acyltransferase activity assay, angelyl-CoA is added. The concentration of the substrate may be any concentration as far as it has no effect on the reaction, and is suitably 0.01 mM to 0.2 M of the reaction solution. The enzyme concentration for the reaction is not particularly limited, and is usually in a range of 0.001 mg/ml to 100 mg/ml.
(§2) The activity may be detected by a method that can measure a decrease of substrates or an increase of reaction products during the reaction. Examples of such methods include a method that separates and quantifies a target substance optionally by using thin layer chromatography, column chromatography, high-performance liquid chromatography (HPLC) and the like. […]
Next, it was examined whether the obtained recombinant enzyme protein (OrfA) catalysed production of angelyl-CoA from 3-hydroxy-2-methylbutyryl-CoA by employing the following reaction conditions. […] After termination of the reaction by adding 100 μl of methanol, it was analysed on LC/MS.

[3] = acyltransferase activity of OrfC inferred from Streptomyces albus/pOSV556-orfABCD culture; format: cell-based, Streptomyces albus J1074; conditions: inferred from Examples 1 to 4
Description: Streptomyces albus/pOSV556-orfABCD was grown by shake culture in 10 ml of a liquid medium containing 1% yeast extract and 1% glucose at 27° C. for 1 day, which was then added 1 ml of 20% trehalose aqueous solution, and the shake culture was continued at 27° C. for 4 more days. The obtained culture medium was added 10 ml of ethanol and stirred for 1 hour. Ethanol in the extract was then removed by distillation under reduced pressure, and 5 ml of ethyl acetate was added to the obtained aqueous solution, which was thoroughly stirred, and then the ethyl acetate phase was collected. After concentration to dryness, the solid was dissolved in 100 μl of methanol and analysed on LC/MS to confirm production of trehangelin (FIG. 1).

[4] = 3-ketoacyl-CoA synthase activity of recombinant OrfB, LC/MS; format: biochemical; conditions: 2.5 μg orfB, 250 μM acetyl-CoA, 250 μM methylmalonyl-CoA, pH 7.5, 27° C., 16 hours
Description: as §1, §2
Next, it was examined whether the obtained recombinant enzyme protein (OrfB) catalyses production of 2-methylacetoacetyl-CoA from acetyl-CoA and methylmalonyl-CoA by employing the following reaction conditions. […] After termination of the reaction by adding 100 μl of methanol, it was analysed on LC/MS.

[5] = 3-ketoacyl-CoA reductase activity of recombinant OrfD, LC/MS; format: biochemical; conditions: 0.8 μg orfD with 2.5 μg orfB, 500 μM NADPH, pH 7.5, 27° C., 16 hours
Description: as §1, §2
Next, it was examined whether the obtained recombinant enzyme protein (OrfD) catalysed production of 3-hydroxy-2-methylbutyryl-CoA from 2-methylacetoacetyl-CoA by employing the following reaction conditions. […] After termination of the reaction by adding 100 μl of methanol, it was analysed on LC/MS.

Question: With `C/C=C(/C)C(=O)OC1C(O)C(CO)OC(OC2OC(CO)C(O)C(OC(=O)/C(C)=C\C)C2O)C1O` (stereo not drawn) [Trehangelin A] as the molecule, how does the “toxicity towards animal cells (particularly, human cells)” value [1] read?
Answer: Its value is “do not exhibit toxicity”.

Question: Which “toxicity towards animal cells (particularly, human cells)” value [1] does the source give for `C/C=C(/C)C(=O)OC1C(OC2OC(CO)C(O)C(OC(=O)/C(C)=C\C)C2O)OC(CO)C(O)C1O` (stereo not drawn) [Trehangelin B] here?
Answer: The value was “do not exhibit toxicity”.

B1: OrfA: enzyme protein encoded by SEQ ID NO: 2, enoyl-CoA hydratase from Polymorphospora rubra K07-0510 (protein)
chain: VTRPDAPGPPVAAPDPADAVVTAVEPYVVRATINRPARRNAIDLAVIEGLERAIDLAEATGARVLVLRGAGGTFCSGADLRVLEEMSVDPHRVETFMVRLALVLRRLETARFVSVAVVEGHAVAGGCEILLACDVSVAATDARIGDRHLEYGLVPAAGGSVRLARTLPKARGNYLLLAADLLTGEQAAQWGLVSVAVPPTDLEPRVDALVGRLVGHSADALAVVKKMVWTADHEPRPDAMSWERRLFLRHLGSEDVSEGLRAFRERRRPAFRADD
modifications: Polymorphospora rubra K07-0510; CDS (1)..(828)
Question: Which “production of angelyl-CoA from 3-hydroxy-2-methylbutyryl-CoA” value [2] does the source give for B1 here?
Answer: Its value is “production of angelyl-CoA was observed”.

B2: OrfC: enzyme protein encoded by SEQ ID NO: 6, acyltransferase from Polymorphospora rubra K07-0510 (protein)
chain: MTTSALGAEPGATDPPAAPPVSYAPSGRMPRTINRWPRPFAPRNILGVLRARLRGATISLNQVKFDESTAERNALVMEHALLRHSHVARYAIVGPFTSLFKVRVGPYAGIAEKVTVGALPHWPELPTSHVFPVNAEFGFCAGEWPEVPGTEVGADAWIGAGAVVRAGVRIGHGAIVAAGAVVTRDVADYEIVAGVPARRLRSRFPDDLAERLVALAWWDWPPGFIKANIDLFQRPLTADTLAALEERARALPTPPGGAA
modifications: Polymorphospora rubra K07-0510; CDS (1)..(780)
Question: Which “acyltransferase activity (trehangelin from angelyl-CoA and trehalose)” value [3] does the source give for B2 here?
Answer: Its value is “had an acyltransferase activity”.

B3: OrfB: enzyme protein encoded by SEQ ID NO: 4, 3-ketoacyl-CoA synthase from Polymorphospora rubra K07-0510 (protein)
chain: MSTSTVIGTGSYLPRRVLSSGELARRVGVAENWIVEKTGIRERRVAADEEATSDLATRAARRALRTARLDPADVDLIVLATSTPDRPMPATASTVQANLGARQAVAFDVDAVCSGFVYALVVAHSMLNSEGWARTALVIGADTYSRVLDYTDRRTAVLFGDGAGAVVLGRETGGGSGIRATTLGTDGTLADLVQIPAGGSRRPASAQTVEAGDHYFAMRGGDVRRLANQVFPALVGQLLKAASLDLDQVDLIAAHQANGTMLTDWSRDLGLRPGVLHRTVERYGNTGAASVPVTLDDAVRTGRLGAAATLLMVAFGGGMTWGGVALDWSADPSVPRSNCVR
modifications: Polymorphospora rubra K07-0510; CDS (1)..(1026)
Question: With B3 as the molecule, how does the “production of 2-methylacetoacetyl-CoA from acetyl-CoA and methylmalonyl-CoA” value [4] read?
Answer: The value was “production of 2-methylacetoacetyl-CoA was observed”.

B4: OrfD: enzyme protein encoded by SEQ ID NO: 8, 3-ketoacyl-CoA reductase from Polymorphospora rubra K07-0510 (protein)
chain: VTAGTGQPVVAAPGRALADRVVVVTGASRGVGRDLARVFADHGARLGLLARSRDALDDLGGTLTAAGADVLAVPCDVGEPDSLAGAVDAVAGHFGGIDSVVVNAGISPVARRAHHLPIDAWHDVLATNLTGGFVTARAAYPHLARSGRGRLVFTTSVMAATPRRGLSAYAASKAGLEGLTRALAADWAGDGILVNAVAPGFFDTGLGAAFHTSQRLHEQVVGRTPVARFGRADELAAAFVFLAGDACGYLTGQVLAVDGGYGLG
modifications: Polymorphospora rubra K07-0510; CDS (1)..(795)
Question: With B4 as the molecule, how does the “production of 3-hydroxy-2-methylbutyryl-CoA from 2-methylacetoacetyl-CoA” value [5] read?
Answer: The value was “production of 3-hydroxy-2-methylbutyryl-CoA was observed”.
